Results from US20090162369A1, “SYNTHETIC CHIMERIC PEPTIDES” (priority 2007, published 2009).

Key:
[1] = tested on: B10.BR mice; assay: Peptide-specific serum IgG titres of B10.BR mice immunised with peptides conjugated to diphtheria toxoid; format: in vivo; settings: peptides conjugated to DT
From the text: FIG. 9: The geometric mean of peptide-specific serum IgG titres of B10.BR mice immunised with different peptides conjugated to diphtheria toxoid (DT). Control mice were immunised with vehicle (PBS). Five mice were immunised per group and error bars show the standard error of the mean (SEM). The highest titres were obtained after primary immunisation plus two booster injections. Although titres had decreased 43 days after the final boost (Day 71), they remained reasonably high.
Female B10.BR mice were immunized with TN18, TN19, J18 and J19 peptides conjugated to diphtheria toxoid (DT). The following immunization protocol was used.
The peptide specific titres in the murine sera samples on day 35, after primary immunization and two boosters, were analyzed.
The self-peptide titres throughout the immunization protocol were analyzed at day 20, day 27, day 35 and day 71.

[2] = biological target: p145 (Streptococcus pyogenes serotype M5, UniProt P02977); settings: FIG. 3
Description: The purified anti-TN peptide antibodies were tested for their ability to bind to p145.

[3] = tested on: multiple isolates of GAS; settings: Pruksakorn et al., 1994a; cited from earlier work
[4] = tested on: GAS; settings: cited from earlier work

Row | Sequence | binding affinity of purified anti-TN peptide antibodies for p145 [2] | further results
1 | QAEDKVKQSREAKNQVERALKQLEDKVQ [J18] | – | immunogenicity compared with the peptides disclosed in WO96/11944 [1]: improved immunogenicity
2 | LRRDLDAVNEAKKQVEKALEC [TN peptide 7] | highest binding affinities | –
3 | LRRDLDASREAKKQVEKALE [p145] | – | opsonisation and killing of GAS by mouse antibodies raised against the peptide [3]: can opsonise and kill multiple isolates of GAS; inhibition of in vitro killing mediated by human sera [4]: can inhibit in vitro killing mediated by human sera
4 | LRRDLDASNEAKKQVEMALEC [TN peptide 14] | highest binding affinities | –
5 | LRRDLDAVREAKKQVEMALEC [TN peptide 11] | highest binding affinities | –
6 | QAEDKVKQSREAKNQVEMALKQLEDKVQ [J19] | – | immunogenicity compared with the peptides disclosed in WO96/11944 [1]: improved immunogenicity
7 | LRRDLDASREAKNQVERALEC [TN peptide 18] | highest binding affinities | –
8 | LRRDLDAEDEAKKQVEKALEC [TN peptide 3] | highest binding affinities | –
9 | LRRDLDAEREAKKQVERALEC [TN peptide 5] | highest binding affinities | –
10 | LRRDLDASREAKNQVEMALEC [TN peptide 19] | highest binding affinities | –
